# Laboratory results published in paper PMC4081063, “The conformational state of the nucleosome entry–exit site modulates TATA box-specific TBP binding”.
# What was measured:
# [1] = target: T1, TBP (human TATA binding protein) (Homo sapiens, UniProt P20226 1-339); experiment: bulk FRET; 5-150 mM KCl; biphasic at low salt; similar at 25 and 37 C; 20 mM Tris pH 7.9, 4 mM MgCl2, 1 mM DTT, 5% glycerol, 5-150 mM KCl as indicated, 1 nM labeled DNA (1-5 nM in Results), 20 min; 25 C (37 C tested); details: protein: recombinant; label: 5' donor and internal amino-dT acceptor 18 bp away, same strand; blunt
# T1 sequence (P20226 whole entry): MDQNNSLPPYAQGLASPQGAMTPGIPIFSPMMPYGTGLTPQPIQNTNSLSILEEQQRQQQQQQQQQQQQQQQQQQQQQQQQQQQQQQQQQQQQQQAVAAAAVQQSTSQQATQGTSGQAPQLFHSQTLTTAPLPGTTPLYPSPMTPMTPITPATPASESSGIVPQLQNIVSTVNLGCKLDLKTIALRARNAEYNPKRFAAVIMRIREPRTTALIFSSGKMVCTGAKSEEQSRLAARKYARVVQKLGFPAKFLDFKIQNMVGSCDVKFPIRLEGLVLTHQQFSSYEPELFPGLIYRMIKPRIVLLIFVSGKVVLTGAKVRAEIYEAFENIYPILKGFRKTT
# [2] = target: T1, TBP (human TATA binding protein); experiment: bulk FRET; 150 mM KCl, 4 mM Mg2+; 20 mM Tris pH 7.9, 4 mM MgCl2, 1 mM DTT, 5% glycerol, 5-150 mM KCl as indicated, 1 nM labeled DNA (1-5 nM in Results), 20 min; 25 C (37 C tested); details: protein: recombinant, blunt
# [3] = target: T1, TBP (human TATA binding protein); experiment: bulk FRET; 50 mM KCl, 4 mM Mg2+; 20 mM Tris pH 7.9, 4 mM MgCl2, 1 mM DTT, 5% glycerol, 5-150 mM KCl as indicated, 1 nM labeled DNA (1-5 nM in Results), 20 min; 25 C (37 C tested); details: protein: recombinant; label: 5' ends labeled with donor (Atto-488) and acceptor (Atto-633 or Atto-647N); blunt
# [4] = target: T1, TBP (human TATA binding protein); experiment: bulk FRET; similar to TATA-14E; stoichiometry 1.1 TBP:DNA; 20 mM Tris pH 7.9, 4 mM MgCl2, 1 mM DTT, 5% glycerol, 5-150 mM KCl as indicated, 1 nM labeled DNA (1-5 nM in Results), 20 min; 25 C (37 C tested); details: protein: recombinant; label: 5' ends labeled with donor and acceptor; blunt
binder,measurement,setting,value
TATA-18I (dsDNA) DNA 1: TGGGGTATAAAAGGGGGTGGACACGTG DNA 2: CACGTGTCCACCCCCTTTTATACCCCA,binding result,[1],binds
TATA-14E (dsDNA) DNA 1: GGCTATAAAAGGGG DNA 2: CCCCTTTTATAGCC,Kd,[2]; label: 5' ends labeled with donor (Atto-488) and acceptor (Atto-633 or Atto-647N),10 ± 3 nM
same,Kd,[3],5 ± 1 nM
TATA-14E* (dsDNA) DNA 1: GGGTATAAAAGGGG DNA 2: CCCCTTTTATACCC,binding result,[4],binds
TATA-14I (dsDNA) DNA 1: TGGTATAAAAGGGTGCGGACACGTG DNA 2: CACGTGTCCGCACCCTTTTATACCA,Kd,"[2]; label: 5' donor and internal amino-dT acceptor 14 bp away, same strand",6 ± 1 nM
